These results are taken from patent US6548475.

In the test the target is molecules present at the cell surface of both cerebellar neurons and PC12 cells. Description: cell-based or functional assay.

“purified recombinant human KAL protein (isolated from transfected CHO cells, clone CHKAL2-3/dll), coated on plastic (from UniProt P23352 25-680)”: the percentage of adherent cells (mouse cerebellar neurons on KAL-coated surface, 90 min) came out at 80%.
